Source: publication PMC9482650, “Quantitative fragmentomics allow affinity mapping of interactomes” (Nature Communications, 2022)

T1: GRIP1_7, Q9Y3R0
T1 sequence (Q9Y3R0 999-1096, limits assumed, looked up): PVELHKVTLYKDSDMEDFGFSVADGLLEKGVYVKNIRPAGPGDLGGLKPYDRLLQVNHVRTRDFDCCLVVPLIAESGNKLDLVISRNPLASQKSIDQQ

T2: SIPA1L2, Q9P2F8
T2 sequence (Q9P2F8 945-1036, limits assumed, looked up): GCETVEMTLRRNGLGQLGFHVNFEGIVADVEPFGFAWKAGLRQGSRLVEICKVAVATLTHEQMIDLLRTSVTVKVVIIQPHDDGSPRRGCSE

T3: LRRC7, Q96NW7
T3 sequence (Q96NW7 1440-1537, limits assumed, looked up): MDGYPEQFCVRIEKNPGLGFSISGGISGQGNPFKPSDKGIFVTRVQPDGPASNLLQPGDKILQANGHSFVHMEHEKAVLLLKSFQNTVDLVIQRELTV

T4: GRIP1_2, Q9Y3R0
T4 sequence (Q9Y3R0 145-248, limits assumed, looked up): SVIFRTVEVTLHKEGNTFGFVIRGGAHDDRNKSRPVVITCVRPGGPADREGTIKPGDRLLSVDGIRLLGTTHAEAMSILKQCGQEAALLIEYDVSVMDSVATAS

T5: MPP2, Q14168
T5 sequence (Q14168 180-250, limits assumed, looked up): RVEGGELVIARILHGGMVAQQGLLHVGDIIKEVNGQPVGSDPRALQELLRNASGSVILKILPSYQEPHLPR

T6: LIN7A, O14910
T6 sequence (O14910 103-200, limits assumed, looked up): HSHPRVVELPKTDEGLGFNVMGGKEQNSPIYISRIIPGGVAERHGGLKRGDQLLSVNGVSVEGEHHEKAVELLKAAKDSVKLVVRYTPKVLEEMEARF

T7: DLG3_2, Q92796
T7 sequence (Q92796 221-321, limits assumed, looked up): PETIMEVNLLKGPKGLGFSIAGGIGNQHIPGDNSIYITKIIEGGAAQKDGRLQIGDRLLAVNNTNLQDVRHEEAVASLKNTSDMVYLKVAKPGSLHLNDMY

T8: RADIL, Q96JH8
T8 sequence (Q96JH8 971-1071, limits assumed, looked up): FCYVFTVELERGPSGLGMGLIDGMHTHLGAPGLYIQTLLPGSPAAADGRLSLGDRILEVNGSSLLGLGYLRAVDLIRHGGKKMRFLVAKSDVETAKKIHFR

T9: DLG3_1, Q92796
T9 sequence (Q92796 125-227, limits assumed, looked up): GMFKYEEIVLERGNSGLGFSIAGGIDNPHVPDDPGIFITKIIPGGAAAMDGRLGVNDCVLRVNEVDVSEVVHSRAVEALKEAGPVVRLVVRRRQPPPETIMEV

T10: MPDZ_10, O75970
T10 sequence (O75970 1624-1722, limits assumed, looked up): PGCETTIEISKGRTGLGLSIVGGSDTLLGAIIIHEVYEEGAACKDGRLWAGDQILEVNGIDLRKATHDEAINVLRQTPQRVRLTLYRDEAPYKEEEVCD


Key:
Assay in all cases: holdup assay
Parameters in all cases: key: below the threshold = too weak to quantify, mostly under pKd 3.1 to 4
Conditions in all cases: plain residues with an end cap or a label only (N-terminal biotin on a linker: ttds)
FRMPD2_2, Q68DX3 = target: FRMPD2_2, Q68DX3
MAGI1_2, Q96QZ7 = target: MAGI1_2, Q96QZ7
GRIP1_7, Q9Y3R0 = target: T1, GRIP1_7, Q9Y3R0
Inadl_4, Q8NI35 = target: Inadl_4, Q8NI35
SIPA1L2, Q9P2F8 = target: T2, SIPA1L2, Q9P2F8
LRRC7, Q96NW7 = target: T3, LRRC7, Q96NW7
TJP2_1, Q9UDY2 = target: TJP2_1, Q9UDY2
GRIP1_2, Q9Y3R0 = target: T4, GRIP1_2, Q9Y3R0
MAGI3_2, Q5TCQ9 = target: MAGI3_2, Q5TCQ9
MAGI1_1, Q96QZ7 = target: MAGI1_1, Q96QZ7
TJP1_2, Q07157 = target: TJP1_2, Q07157
MAST1, Q9Y2H9 = target: MAST1, Q9Y2H9
MPP2, Q14168 = target: T5, MPP2, Q14168
PDLIM1, O00151 = target: PDLIM1, O00151
MAGI2_4, Q86UL8 = target: MAGI2_4, Q86UL8
DLG4_1, P78352 = target: DLG4_1, P78352
LIN7A, O14910 = target: T6, LIN7A, O14910
LNX1_3, Q8TBB1 = target: LNX1_3, Q8TBB1
FRMPD2_3, Q68DX3 = target: FRMPD2_3, Q68DX3
SCRIB_3, Q14160 = target: SCRIB_3, Q14160
Inadl_5, Q8NI35 = target: Inadl_5, Q8NI35
DLG3_2, Q92796 = target: T7, DLG3_2, Q92796
RADIL, Q96JH8 = target: T8, RADIL, Q96JH8
NHERF4_4, Q86UT5 = target: NHERF4_4, Q86UT5
DLG3_1, Q92796 = target: T9, DLG3_1, Q92796
MPDZ_10, O75970 = target: T10, MPDZ_10, O75970
MAGI2_6, Q86UL8 = target: MAGI2_6, Q86UL8
MAGI2_6, Q86UL8, sequence (Q86UL8 1141-1229): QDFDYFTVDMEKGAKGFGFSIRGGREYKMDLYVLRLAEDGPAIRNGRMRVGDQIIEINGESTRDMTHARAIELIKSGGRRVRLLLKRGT

MAST1, Q9Y2H9, sequence (Q9Y2H9 962-1065): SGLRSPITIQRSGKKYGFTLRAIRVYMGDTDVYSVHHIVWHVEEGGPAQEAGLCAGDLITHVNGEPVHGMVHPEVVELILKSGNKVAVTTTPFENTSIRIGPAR
FRMPD2_2, Q68DX3, sequence (Q68DX3 944-1038): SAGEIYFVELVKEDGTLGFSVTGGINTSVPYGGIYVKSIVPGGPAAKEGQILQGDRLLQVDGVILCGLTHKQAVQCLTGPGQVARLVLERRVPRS
PDLIM1, O00151, sequence (O00151 1-87): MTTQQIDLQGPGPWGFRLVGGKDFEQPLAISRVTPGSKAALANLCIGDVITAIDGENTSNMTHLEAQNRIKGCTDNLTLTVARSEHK
FRMPD2_3, Q68DX3, sequence (Q68DX3 1073-1166): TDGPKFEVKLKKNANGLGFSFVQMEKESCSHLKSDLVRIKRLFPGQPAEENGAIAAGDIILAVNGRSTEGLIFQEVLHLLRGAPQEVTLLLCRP
TJP2_1, Q9UDY2, sequence (Q9UDY2 24-128): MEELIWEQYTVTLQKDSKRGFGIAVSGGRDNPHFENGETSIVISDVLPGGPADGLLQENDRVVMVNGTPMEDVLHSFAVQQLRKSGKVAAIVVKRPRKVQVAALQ
Inadl_5, Q8NI35, sequence (Q8NI35 673-780): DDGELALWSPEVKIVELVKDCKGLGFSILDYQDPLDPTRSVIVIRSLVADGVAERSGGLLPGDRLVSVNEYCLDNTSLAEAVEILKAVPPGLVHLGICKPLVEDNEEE
MAGI2_4, Q86UL8, sequence (Q86UL8 772-865): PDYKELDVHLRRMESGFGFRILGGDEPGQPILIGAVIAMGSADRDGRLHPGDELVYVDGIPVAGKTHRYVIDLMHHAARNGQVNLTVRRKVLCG
NHERF4_4, Q86UT5, sequence (Q86UT5 464-550): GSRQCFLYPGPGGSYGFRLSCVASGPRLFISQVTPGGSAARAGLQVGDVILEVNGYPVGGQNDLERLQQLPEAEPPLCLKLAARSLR
LNX1_3, Q8TBB1, sequence (Q8TBB1 500-596): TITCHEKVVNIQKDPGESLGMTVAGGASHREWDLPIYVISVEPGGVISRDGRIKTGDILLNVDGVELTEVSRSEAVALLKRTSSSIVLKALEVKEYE
MAGI1_1, Q96QZ7, sequence (Q96QZ7 1-106): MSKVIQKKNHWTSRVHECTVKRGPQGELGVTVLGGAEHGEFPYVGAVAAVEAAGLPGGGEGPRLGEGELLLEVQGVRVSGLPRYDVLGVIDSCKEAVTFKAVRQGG
MAGI1_2, Q96QZ7, sequence (Q96QZ7 456-580): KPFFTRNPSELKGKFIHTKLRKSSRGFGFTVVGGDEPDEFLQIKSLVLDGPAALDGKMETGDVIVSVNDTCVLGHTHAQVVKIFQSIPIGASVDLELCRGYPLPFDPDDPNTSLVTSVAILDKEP
DLG4_1, P78352, sequence (P78352 62-152): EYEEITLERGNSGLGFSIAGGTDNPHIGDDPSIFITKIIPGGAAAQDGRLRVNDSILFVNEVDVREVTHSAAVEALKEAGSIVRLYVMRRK
TJP1_2, Q07157, sequence (Q07157 181-274): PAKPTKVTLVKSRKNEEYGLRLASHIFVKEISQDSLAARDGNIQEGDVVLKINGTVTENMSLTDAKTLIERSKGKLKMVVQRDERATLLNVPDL
SCRIB_3, Q14160, sequence (Q14160 999-1103): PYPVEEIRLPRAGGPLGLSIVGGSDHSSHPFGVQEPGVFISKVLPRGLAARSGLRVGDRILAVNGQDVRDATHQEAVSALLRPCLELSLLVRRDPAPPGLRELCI
MAGI3_2, Q5TCQ9, sequence (Q5TCQ9 398-503): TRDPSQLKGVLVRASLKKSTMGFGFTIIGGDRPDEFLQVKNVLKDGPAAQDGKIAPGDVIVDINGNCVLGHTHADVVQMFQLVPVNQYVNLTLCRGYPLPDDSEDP
Inadl_4, Q8NI35, sequence (Q8NI35 547-651): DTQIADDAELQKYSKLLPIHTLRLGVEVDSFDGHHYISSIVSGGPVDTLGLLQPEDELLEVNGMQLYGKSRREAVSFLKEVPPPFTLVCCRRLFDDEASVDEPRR

Binder | pKd (FRMPD2_2, Q68DX3) | pKd (MAGI1_2, Q96QZ7) | pKd (GRIP1_7, Q9Y3R0) | pKd (Inadl_4, Q8NI35) | pKd (SIPA1L2, Q9P2F8) | pKd (LRRC7, Q96NW7) | pKd (TJP2_1, Q9UDY2) | pKd (GRIP1_2, Q9Y3R0) | pKd (MAGI3_2, Q5TCQ9) | pKd (MAGI1_1, Q96QZ7) | pKd (TJP1_2, Q07157) | pKd (MAST1, Q9Y2H9) | pKd (MPP2, Q14168) | pKd (PDLIM1, O00151) | pKd (MAGI2_4, Q86UL8) | pKd (DLG4_1, P78352) | pKd (LIN7A, O14910) | pKd (LNX1_3, Q8TBB1) | pKd (FRMPD2_3, Q68DX3) | pKd (SCRIB_3, Q14160) | other results
GRLLGLETNV [ARHGEF26, Q96DR7] | 4.22 | 3.65 | 4.11 | below the threshold | below the threshold | below the threshold | below the threshold | below the threshold | 4.68 | below the threshold | below the threshold | 4.33 | below the threshold | below the threshold | 4.02 | 4.68 | below the threshold | below the threshold | below the threshold | 4.67 | pKd (Inadl_5, Q8NI35): below the threshold; pKd (DLG3_2, Q92796): 4.97; pKd (RADIL, Q96JH8): below the threshold; pKd (NHERF4_4, Q86UT5): below the threshold; pKd (DLG3_1, Q92796): 4.13; pKd (MPDZ_10, O75970): below the threshold; pKd (MAGI2_6, Q86UL8): 4.39
QRPYRRESEI [KCNJ12, Q14500] | below the threshold | 4 | below the threshold | below the threshold | below the threshold | below the threshold | below the threshold | below the threshold | 4.75 | below the threshold | below the threshold | below the threshold | below the threshold | below the threshold | below the threshold | 4.22 | below the threshold | below the threshold | below the threshold | 4.76 | pKd (Inadl_5, Q8NI35): below the threshold; pKd (DLG3_2, Q92796): 4.28; pKd (RADIL, Q96JH8): below the threshold; pKd (NHERF4_4, Q86UT5): below the threshold; pKd (DLG3_1, Q92796): below the threshold; pKd (MPDZ_10, O75970): below the threshold; pKd (MAGI2_6, Q86UL8): below the threshold
